# The DeepSol protein solubility set
# Experiment: soluble on expression in E. coli; label from the status in PepcDB or PDB records
row,Sequence,soluble on expression in E. coli
1,MSLQHMYRCARVQGLDTSEGLLLFGKEHFYVIDGFTMTATREIRDIETLPPNMHEPIIPRGARQGPSQLKRTCSIFAYEDIKEVHKRRYLLQPIAVEVFSGDGRNYLLAFQKGIRNKVYQRFLAVVPSLTDSSESVSGQRPNTSVEQGSGLLSTLVGEKSVTQRWERGEISNFQYLMHLNTLAGRSYNDLMQYPVFPWILSDYDSEEVDLTNPKTFRNLAKPMGAQTDERLAQYKKRYKDWEDPNGETPAYHYGTHYSSAMIVASYLVRMEPFTQIFLRLQGGHFDLADRMFHSVREAWYSASKHNMADVKELIPEFFYLPEFLFNSNNFDLGCKQNGTKLGDVILPPWAKGDPREFIRVHREALECDYVSAHLHEWIDLIFGYKQQGPAAVEAVNVFHHLFYEGQVDIYNINDPLKETATIGFINNFGQIPKQLFKKPHPPKRVRSRLNGDNIGISVPPGATSDKIFFHHLDNLRPSLTPVKELKEPVGQIVCTDKGILAVEQNKVLIPPAWNKTFAWGYADLSCRLGTYESDKAVTVYECLSEWGQILCAVCPNPKLVITGGTSTVVCVWEMGTSKEKAKPLTLKQALLGHTDTVTCATASLAYHIIVSGSRDRTCIIWDLNKLSFLTQLRGHRAPVSALCINELTGDIVSCAGTYIHVWSINGNPIVSVNTFTGRSQQIVCCCMSEMNEWDTQNVIVTGHSDGVVRFWRMEFLQVPETPAPEPVEDLEMQEGCPEAQIGQQAQDDDSSDSETEEPSVSQDPKDTSSQPSSTSHRPRAASCRATATWCTDSGSDDSRRWSDQLSLDEKDGFIFVNYSEGQTRAHLQGPLAHPHPNPIEARSYSRLKPGYRWERQLVFRSKLTMHTAFDRKDNTHPAEVTALGVSKDHSRILVGDSRGRVFSWSVSDQEGHHHHHH,not soluble
2,MAHHHHHHMASVGRFVQTADPAVTALESPPLPTETRLWRQSPDCQSESDSNRVSGSVLDSVKSNGGPKHASTARLHASQDLPTSVTRFLCLSSSSNSAAAKDLRRQLLVVRDCCVALGNKVKGSELLLLGGSQLSRKVEAMADFNSCLGVIFAASLTFTGETEGVAKDTLCSVVEMLKSAQESGDEKVFRAAVVKIVNRILLCTPLRPPARNAAKETARKSAGKQEQHAEQEPKLEDECLDFLTVEDGVPVLLECVWKRWLRYFEDGYVRYVKKLMAEERQALEAAAAAAAADDYNGEEAQYVDGVSATTTQTISTVPLFTTCQDYWKSPASAYAQFCYILLAIFFVRTKDFSLNYLARVTKLVQYFTYQLEFEDGEPIAVRTDTDAEEDSAQSEDEDDDRTPPQQEGPRKEKQVHSLPMPEYDKAVTQRRFRMSRRSSSQGLVPTVVSFKKAEKPRRHCHKCFFTDALPGDLRPSVEAVRQEEAEAAARDSEEHSHLPVVRRSANLDLSEHSISPQREREQLDACDASMESVQGV,not soluble
3,MTADDSPSDRWGPRCTTRGPGSDPRFDVPVRGVDVGPETRCAHYHGPRDVIAIRFACCDVFYPCHRCHEETATHPPERWPHDQFNASAVLCGRCRTVLTIEQYLDADHTCPACGAAFNPNCARHHDRYFCVGLEHHHHHH,not soluble
4,MHLLRTQPGGFVPDDGIAHLAQTPAELVILCSGDSHLALLAEAARALPDDYPSLRLANPMQLQNHASVDLYVEEVLRHARVILLSLHGGIGYWRYGVEQLVALAERGALLIPVPGDDRPDPELSALGNLPAEQAERFWQYLRQGGLENAGQFYRCLASQCLGRDYAWREPQALPRVALFHPRHAEATLEHWRADWQAGRPVVALLFYRTHLQAANTAFIARFCERLAAQGLNPLPIALASLKESACLAQVEDWLERSDAALIVNTTGFAQSNPEAPELRPFRRDVPVLQAICSLDNRPLWLDNPQGLGPRDLAMHVALPELDGRIVTRPISFKGLAWRSERSESDVVCYLADDERMDFVAELARRWAELARKPNAEKRVALVLANYPTRDGRIGNGVGLDTPAAALNILRALRQQGYPVDGLPASGTELIRQLLGGVSNDLEHLDLRPCAQSLALDDYLACFARLPERNRQAVLARWGEPQQDPMFRDGRMMVAGLRYGLTFVGIQPARGYQLDPAAVYHDPDLVPPHGYLAFYFWLRHAYRADALLHVGKHGNLEWLPGKGVGLSAECWPDALLGPLPNIYPFIVNDPGEGAQAKRRTQAVIIDHLMPPLTRAESYGPLRDLERLADEFYDASLLDPRRAEQLRGEILVLLRDNRLDREIGLQLSDDPDSWLPQLDAYLCDLKESQIRDGLHVFGESPSGRLRLDTLLALLRVPRGDGKGANAGLLKSLADDLGLGFDPLACDMGEAWQGARPACLEERGGEPWRTLGDTRERLELLALHWIERCLGGESPPATWRASGEVLRGLCEQVAPTLDACGGAEIDGLLAALEGRFVPAGPSGAPSRGRLDVLPTGRNFFSVDVRNLPTPTAWRIGFQSANLLLERHLQEHGDHLRQLGLSVWGTATMRTGGDDIAQALALLGVRPVWQAGSQRVADFEILPVSLLDRPRVDVTLRVSGFFRDAFANLIRLFDAAVQAVAELDEAEELNPLAARVRLERQRLEAQGTAPAEARRQAGWRIFGAKPGAYGAGVQGAIEERLWETRADLAEVYLNWGGYAYGAADDGTPARERFAQRLERLQAVLHNQDNREHDLLDSNDYYQFQGGMLAAVETLRGAPVASYHGDHSQPDNPRIRTLKEELNRVVRARAVNPKWIAGMKRHGYKGAFELAATVDYLCAFDATSELIDDHQYALLADAYLLDAETREFVRQHNPQALRDMAERLVEAQRRGLWQEPGAYREALENL,not soluble
5,MAHHHHHHMEWVELHDVDPETMSLELPPDMLFGPLEFPKQMRFLLAALRADNELADGYLARVIIDRMDLSLDPPILSEGDFLAAGGKELLDFSVEDFTGTKSRAQRKHIFFQPDQFLQFINIIAAYPTLTEYFVNEKDGVELVFQAYRHSKNPYACVMAMRSLTLFSFTQAVDGTVERRILQSNGVKTIVDAYKQSTGDPTETRFPTLLLSSIMRHYPKEGGKEFIDADGVEAVVNNLNIARYKGIPQHIRVLHDAQRLPKQSIGKKSVDARLEEADFLGVAMGLLDTFPEFYEATGDLLKLLTRVVPAHADPLELLEYRAMPILSKYYVRWREDQSFQTDGTRTLVAKLFELMLNDKTCQRCYDPSVASYELLECLRTAKLAVKDEQEKRVMRFPDPQRQPASAAA,soluble
6,MGHHHHHHSHSAAKGTGITRKKTFKEVANAVKISASLMGTVMAKRVKATILYGSETGRAQSYAQQLGRLFRKAFDPRVLCMDEYDVVSLEHETLVLVVTSTFGNGDPPENGESFAAALMEMSGPYN,not soluble
7,MGSDKIHHHHHHMVKSNICGGSTMTQTLPKLVTFEQFIEWYPSNGARYELHKGVIVEMPPPSGEHENVVGFLAAQITLQFLQMGLPFCIPKTAFVKIQSNNSTYSPDILLLNHDNLVNEPLWSKQSTVIQAASIPLAVEVVSQCVARVPRVEATDEPVRVSTNWRDDYYDKFRDYEEMGIPEYWIVDYAAIGGKRFTGNPKQKTITICELVEGDYQMTVFRENNFVVSPLFPQLNLTAQQIFDSAL,not soluble
8,MANSSPCMKAVRVPKSEAEQVRRLAEKLGVKDKSRRITATGDYVEIPIIDSAESFFKGYTIVEQDNPVFSRKRSLREILRGKVPEELIPTNYKVIGDIVVVKLDERAREYAKVIGEALMQINPCKAVWCDYGRYGMKRKPRMELIAGEGSVTEHRENGCRFRIDVAKVMFSLGNQAERMRIARLVEDGEVVVDMFAGIGYFSIPIAVHSKARRIYSIEINPESYKLLLENIKLNDVGNIVPILGDSQFVTPEGVADRVVMGHIYCHDYLHTAIRALKERGVVHYHEATPEAVIDRPVRRVEKACRKMGKKCRILGFKKVKNYSPGVYHVVVDAEVY,not soluble
9,FHPHTKGSQILMDLSHKAVKRQASFCNAITFSNRPVLIYEQVRLKITKKQCCWSGALRLGFTSKD,not soluble
10,MKTVGVVLSGCGVLDGAEIHESVLTMLALDRAGAEVLFFAPDKPQLHVINHITGEIVAEERNVLVESARIARGLITPLSAADPEVLDALIVPGGFGAAKNLCDFAIKGGECSVEPDLYKLIQLMHKSGKPIGLMCISPVMLPKLLGKPIRLTIGNDPDTIDAIEIMGGEHVICPADDVVIDLENKVVTTPAYMLAGSISEAAKGIDKLVTKVLDLTE,not soluble
11,ISISRADLAFDLFEVDCSEFVLEKKGRPTATKEFRSSTGTLETKYLGAPRSEKQVRLYNKKKEQLQNGTDKDKDFASQFKHWWRLEFQLRSRSIDEIFEVIDTIIFKPFNLKGLSIETQIYLTALIHDKNIWKKLHRNTRARYKKILETHQTSDTDYLGLLKDLLKHERPRLENQLAYYGGRIDKNSFQPFC,not soluble
12,MAHHHHHHMNEPSSGETNLQGGEDDVSAKGRSYGGAGGEKDAESNMNPSDNNTSSAVEDNHENSAQKEGADELGEDALNEMFDDFLKDIENISSNMENQQEGKKLNKGDAESEIARLLANKNSSPFEIFGIHEDVDMEKIKSKYRRLSVLIHPDKCKIEKASEAFHILNKAYEELKKDDIKEQYKSVYETAKKNIIKKLNLKKIRNELNEYLNKNEEEYEITKEVQLLINEECENLLKVQKEKMEYAQKCKLANLQYAKEKEEEKMKEELKKEEERKLWIEGREERVNNWKNYKKDNLKTEKEFHIYKNVGKKKEERTEEEKEKLKRISTTNPMEK,soluble
13,MSLRPFATKAEADAAVADIRARGRLIVGLDIGSNLFSFRDPITGEITGFDVDIAGEVARDIFGVPSHVEYRILSAAERVTALQKSQVDIVVKTMSITCERRKLVNFSTVYLDANQRILAPRDSPITKVSDLSGKRVCVARGTTSLRRIREIAPPPVIVSVVNWADCLVALQQREIDAVSTDDTILAGLVEEDPYLHIVGPDMADQPYGVGINLDNTGLVRFVNGTLERIRNDGTWNTLYRKWLTVLGEGHHHHHH,soluble
14,MGSDKIHHHHHHRLVEVGKGFSSTSVNTTVFRNNSIVTHGNTQYISYYDAEGWLMLGKRRLGTGEWILHRTQYKGHVKDAHNIISMMVDGDGYLHLSFDHHGHKLNYCRSIAPDTLVLGDKEPMIGNEEEDVTYPEFHLLADGGLLFVYRSGASGRGNMVMNRYDVKSRKWERVQDVLVDGENERNAYWQLYVDQSGTIHLSWVWRETWHVETNHDLCYARSFDGGRTWYKTNGQKYELPIRLGNAEYACRIPQNAELINQTSMSTDAGGHPYIATYWRNPDSDVPQYRIVWHDGVNWHNRQVSERKAPFSLKGGGTKMIPMSRPRMVVDNGEVYYLFRDQERGSKVSMYYTKDIQFGEWHVKDLTDFAVNAWEPSHDTELWKMKKQLHIYVQDTRQGDGEKQVETEPQMVYVLEL,not soluble
15,MFSFNMFDHPIPRVFQNRFSTQYRCFSVSMLAGPNDRSDVEKGGKIIMPPSALDQLSRLNITYPMLFKLTNKNSDRMTHCGVLEFVADEGICYLPHWMMQNLLLEEGGLVQVESVNLQVATYSKFQPQSPDFLDITNPKAVLENALRNFACLTTGDVIAINYNEKIYELRVMETKPDKAVSIIECDMNVDFDAPLGYKEPERQVQHEESTEGEADHSGYAGELGFRAFSGSGNRLDGKKKGVEPSPSPIKPGDIKRGIPNYEFKLGKITFIRNSRPLVKKVEEDEAGGRFVAFSGEGQSLRKKGRKP,soluble
16,MGSDKIHHHHHHMSTNLDQLTDWLKEHKITEVECMVSDLTGITRGKISPTNKFIAEKGMRLPESVLLQTVTGDYVEDDIYYELLDPADIDMICRPDQNAVYLVPWAVEPTAQVIHDTYDKQGNPIELSPRNVLKKVLKLYADQGWQPIVAPEMEFYLTKRSDDPDYPLQPPIGRSGRPETGRQSFSIEAANEFDPLFEDVYDWCELQNLDLDTLIHEDGTAQMEINFRHGDALSLADQILVFKRTMREAALKHDVAATFMAKPMTGEPGSAMHLHQSIIDIETGKNIFSNEDGTMSELFLNHVGGLQKFIPELLPLFAPNVNSFRRFLPDTSAPVNVEWGEENRTVGLRVPDAVPQNRRVENRLPGADANPYLAIAASLLCGFIGMVEGINPSAPVVGRGYERRNLRLPLTIEDALERMENSKTIEKYLGKKFIIGYVAVKRAEHENFKRVISSWEREFLLFAV,not soluble
